Assay results taken from paper PMC4497658.

target: IFNAR receptors (IFNAR1 and IFNAR2) on WISH cells (human (endogenous in WISH)) (UniProt P17181); assay: radioligand binding; in situ competition on WISH cells: ^125I-labeled wild type IFNα2 (200,000 cpm/well) with unlabeled IFN at ten concentrations (4-fold steps from 200 nM for the antagonists, 10 nM for IFNα2-α8tail), 1 hr at room temperature, culture medium + 0.1% sodium azide

Going from “YNS (IFNα2 N57Y, E58N and Q61S) (ligand)” to “IFN-1ant (IFNα2 R120E with the α8-tail) (ligand)”, the EC50 rises from 0.001 nM to 0.5 nM (500-fold). The first is the more potent here.

First: IFNα2-α8tail (ligand)
Second: IFN-1ant_(Y85M) (ligand)
The EC50 of the first is 5.3-fold lower: 0.15 nM for the first, 0.8 nM for the second.

IFN-1ant_(N65A) (ligand) and IFN-1ant_(Y85A) (ligand) are within 1.5-fold of each other in EC50: 1.7 nM for the first, 2 nM for the second.
